Measured values reported in publication PMC10526137, “Development of a High-Accuracy, Low-Cost, and Portable Fluorometer with Smartphone Application for the Detection of Urinary Albumin towards the Early Screening of Chronic Kidney and Renal Diseases”.

Target: human serum albumin (HSA) (Homo sapiens, UniProt P02768 25-609)
Assay: graphene oxide fluorescence recovery (aptamer release from GO); GO-aptamer complex, PBS pH 7.4, HSA 0.001-1.5 mg/mL; LOD 0.203 ug/mL, no Kd; PBS pH 7.4, room temperature; 15 uL of 5 uM Cy5-H8 + 85 uL GO-PBS (15 uL of 5 mg/mL GO in 70 uL PBS) 5 min in the dark, then 100 uL HSA for 30 min; also artificial urine
Settings: protein: commercial; label: 5'-Cy5

Chain of human serum albumin (HSA) (P02768 25-609): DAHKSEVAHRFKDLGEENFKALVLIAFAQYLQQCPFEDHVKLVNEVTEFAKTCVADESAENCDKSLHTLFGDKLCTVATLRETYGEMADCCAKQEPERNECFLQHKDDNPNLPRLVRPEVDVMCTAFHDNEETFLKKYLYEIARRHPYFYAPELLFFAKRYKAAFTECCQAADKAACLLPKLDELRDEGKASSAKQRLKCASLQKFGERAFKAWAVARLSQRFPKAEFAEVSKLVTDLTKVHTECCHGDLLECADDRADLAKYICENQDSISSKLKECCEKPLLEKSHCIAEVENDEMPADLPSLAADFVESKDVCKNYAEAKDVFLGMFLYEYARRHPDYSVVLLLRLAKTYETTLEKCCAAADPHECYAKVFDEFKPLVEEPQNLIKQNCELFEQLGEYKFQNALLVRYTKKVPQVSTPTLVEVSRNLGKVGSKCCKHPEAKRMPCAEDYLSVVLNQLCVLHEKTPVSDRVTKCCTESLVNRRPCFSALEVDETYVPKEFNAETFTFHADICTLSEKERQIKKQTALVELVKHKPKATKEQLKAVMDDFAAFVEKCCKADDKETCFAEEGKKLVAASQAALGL

B1: H8 albumin aptamer (ssDNA)
DNA: ATACCAGCTTATTCAATTCCCCCGGCTTTGGTTTAGAGGTAGTTGCTCATTACTTGTACGCTCCGGATGAGATAGTAAGTGCAATCT
binding result: binds
